Measurements: patent US12427212B2, “Nectin-4 binding miniproteins, conjugates and uses thereof” (Aktis Oncology, Inc., priority 2023, dated 2025)
Read-outs that look alike come from different tables or passages of the source. Bridges are numbered along the chain shown (N, C = ends). The star is where a group is joined. DOTA = O=C(O)CN1CCN(CC(=O)O)CCN(CC(=O)*)CCN(CC(=O)O)CC1; PEG4 = NCCOCCOCCOCCOCCC(=O)O

Experiments:
[1] = previously published; cited from earlier work
Nectin-4 = molecular target: T1, Nectin-4 (Homo sapiens, UniProt Q96NY8); conditions: cited from earlier work
T1 sequence (Q96NY8 32-510): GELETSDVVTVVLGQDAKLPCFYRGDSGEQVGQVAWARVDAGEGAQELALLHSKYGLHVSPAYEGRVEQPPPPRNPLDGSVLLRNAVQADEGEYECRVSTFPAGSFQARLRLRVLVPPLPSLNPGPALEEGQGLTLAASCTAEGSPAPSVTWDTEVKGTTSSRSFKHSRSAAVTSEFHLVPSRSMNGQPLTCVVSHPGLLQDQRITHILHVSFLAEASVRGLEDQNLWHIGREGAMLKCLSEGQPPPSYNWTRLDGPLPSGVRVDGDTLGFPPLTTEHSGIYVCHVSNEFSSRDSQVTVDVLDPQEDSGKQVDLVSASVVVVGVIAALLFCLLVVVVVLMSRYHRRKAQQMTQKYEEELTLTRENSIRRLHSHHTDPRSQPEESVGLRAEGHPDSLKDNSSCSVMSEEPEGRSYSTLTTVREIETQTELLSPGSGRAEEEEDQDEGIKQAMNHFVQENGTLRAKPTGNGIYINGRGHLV

[2] = system: HT-1376-cells ("Parental", which express Nectin-4); assay: In vivo efficacy in cell-line derived xenograft (CDX) model, HT-1376 parental; parameters: species or system mouse; conditions: 3 mg/kg IV QWx3; versus vehicle
Experimental: In vivo efficacy study experiments were performed in tumor bearing athymic nude mice. […] Tumors were monitored for a minimum of 14 days prior to group stratification and study initiation dates.
Dose measurements for a sample injected dose were measured and confirmed on a gamma counter and corrected for decay. EV doses were calculated based on mouse weights and liquid concentration of prepared material. Indicated doses of vehicle, EV or radiolabeled C251 were prepared corresponding to the indicated administered dose levels per group. Doses were administered via tail vein injection while restrained and awake.
Animal monitoring: Tumor volume (caliper measurement) and body weight measurements for enrolled mice were performed twice a week for an initial planned monitoring period of 8 weeks. More frequent gross observations of mice were performed.
Hunan endpoints: Mice remained on study until they reached the end of the 8-week monitoring period or a number of pre-defined humane endpoints, including: • 1. An increase in tumor volume size that exceeds >1500 mm^3, or 20 mm in one dimension, or tumor becomes ulcerated or necrotic. • 2. A decrease in body weight ≥20% from maximum recorded weight. • 3. Any signs of pain or distress (i.e., consistent hunched posture, rough coat, squinted eyes, slowed gait). • 4. Tumors that compromise mobility or ability to eat or drink. • 5. BCS score ≤2. […]

[3] = system: HT-1376 urothelial cancer cells; assay: In vitro cell cytotoxicity assay of 225Ac-radioconjugates (CellTiter-Glo); format: cell-based, human; conditions: compound radiolabeled with 225Ac, 24 h treatment, 4-5 day regrowth, HT-1376 cells
Experimental: Cytotoxicity to ^225Ac-radioconjugates was assessed in HT-1376 urothelial cancer cells. Cells were seeded in 96-well plates at densities of 250 to 1000 cells per well two days prior to treatment. On the day of treatment ^225Ac-radioconjugates were diluted in culture medium to concentrations ranging from 0,0001 to 100 μCi/mL and treatment solutions were incubated with cells for 24 h. At the end of the treatment period, the treatment solution was removed, and fresh culture medium was replenished for the regrowth period of the assay that lasted 4-5 day's. At the end of the regrowth period the culture medium was removed and viability was assessed by CellTiter-Glo (Promega, Waltham MA) luminescent assay and the plates were read on a Perkin Elmer Enspire multimode plate reader. Data were normalized to treatment controls and plotted as non-linear sigmoidal dose response curves to determine the effective concentration for 50% reduction in cell viability.

[4] = system: HT-1376 urothelial cancer cells; assay: Radioligand binding of lutetium-177 radioconjugates, saturation and kinetic analysis; parameters: species or system human; conditions: lutetium-177 radioconjugates of PEG4-DOTA compounds, HT-1376 cells, global fit of association and dissociation
Experimental: Radioligand binding was performed in HT-1376 urothelial cancer cells by method of saturation. Cells were seeded at 20,000 cells per well in 96-well format 48 h prior to assay. Lutetium-177-labeled radioconjugates of C215 and C117 were incubated with cells at 4° C. for 1 h at various increasing concentrations of radioligand. At the end of incubation, cells were washed three times with PBS and radioactivity was quantified by gamma counting as shown in FIGS. 4A-5B.
Radioligand binding was performed in HT-1376 urothelial cancer cells by method of kinetic analysis. Cells were seeded at 20,000 cells per well in 96-well format 48 h prior to assay. On the day of assay, culture medium was removed and PBS was added to cells. Association kinetics were measured at three concentrations of radioligand, and this was performed by the addition of lutetium-177 radioconjugates to cells at various time points from 1 to 60 minutes.

HT-1376 tumor xenograft = assay: In vivo biodistribution of 111In-labeled miniproteins by SPECT/CT, HT-1376 xenograft; parameters: species or system mouse; conditions: 111In-labeled, tumor, +4 h, HT-1376 xenograft mice
Method in brief: (§1)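 Uptake in % ID/g from maximum intensity projections of SPECT/CT scans, with SPECT in activity units and CT windowed −500 to 4500 HU. Animals carried HT-1376 tumors, a human Nectin-4-expressing line, and were dosed with 111In-labeled miniproteins.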

[5] = as above; parameters: species or system mouse; conditions: female, athymic nude, mouse, in vivo
Method in brief: as §1

[6] = PhII trial, locally advanced or metastatic bladder cancer, 10.2 months median follow up

enfortumab vedotin
Plasma terminal half-life (min) [1]: 2,476.8 (1.72 days) min

enfortumab vedotin [EV]
overall tumor objective response rate (ORR) (Nectin-4; PhI study, patients previously treated with ICI therapy): 42%
ORR (Nectin-4; PhI study, patients with particularly high tumor burden (liver metastases)): 36%
ORR (Nectin-4; [6]): 44%
complete response rate (CRR) (Nectin-4; [6]): 12%
Tumor volume [2]: Some reduction in tumor volume

{DOTA-PEG4}-CEYDEEFFTALKRLRGGDICYYIQAKFQYLPKLCIEEILDNLGCS-OH (disulfide 1-34, 20-44 (inferred)) [Compound C117]
EC50 (microcurie/milliliter) for 225Ac radioconjugates [3]: 0.014 microcurie/milliliter
Kd [4]: 2.64 nM
Data of Biodistribution (+4 h Tumor~% ID/g) (HT-1376 tumor xenograft): 2.29 % ID/g
tissue uptake at 4 h [5]: 150 %ID/g
tissue uptake at 24 h [5]: 93.3 %ID/g
